For assay [1], the target named is T1, rat PTK-7 recombinant protein (rat, UniProt A0A8I6ALM9 40-713).
T1 construct: also called rat PTK7 protein
The assay can be described thus: ELISA, plate-coated rat PTK7 protein, anti-human Fc-HRP detection. As to the method:
(§1) Binding specificity property was tested by ELISA according to a standard protocol. Specifically, 96-well micro-plates were coated with 2 μg/mL human, cynomolgus, mouse, and rat PTK-7 recombinant protein in PBS 100 μL per well, incubated overnight at 4° C. Plates were washed twice by TBS+0.5% Tween20. 200 μL of blocking buffer (2% BSA in PBS) was added to each well and incubated at 37° C. for 2 hours. Plates were washed using the buffer mentioned above. Serially diluted antibodies were added to the ELISA plate with 100 μL per well and incubated for 1 hour at room temperature. Then plates were washed for 3 times. After washing, HRP conjugated anti-human Fc antibody solution (abcam, ab98624, diluted with blocking buffer) was added to the plate with 100 μl per well. The plates were incubated at room temperature for 1 hour and then washed for 3 times. Then TMB solution was added to plates with 100 μl per well, placed at room temperature for 5-15 mins, then the stop solution (2M H₂SO₄) was added with 50 μl per well. Finally, the result was measured by absorbance at A₄₅₀ and A₆₃₀.
In general terms: In an ELISA, binding on a coated surface is turned into a signal by an enzyme label.

Assay [2] has as its target T2, mouse PTK-7 recombinant protein (mouse, UniProt Q8BKG3 23-696, limits assumed).
T2 construct: also called mouse PTK7 protein
T2 sequence (looked up): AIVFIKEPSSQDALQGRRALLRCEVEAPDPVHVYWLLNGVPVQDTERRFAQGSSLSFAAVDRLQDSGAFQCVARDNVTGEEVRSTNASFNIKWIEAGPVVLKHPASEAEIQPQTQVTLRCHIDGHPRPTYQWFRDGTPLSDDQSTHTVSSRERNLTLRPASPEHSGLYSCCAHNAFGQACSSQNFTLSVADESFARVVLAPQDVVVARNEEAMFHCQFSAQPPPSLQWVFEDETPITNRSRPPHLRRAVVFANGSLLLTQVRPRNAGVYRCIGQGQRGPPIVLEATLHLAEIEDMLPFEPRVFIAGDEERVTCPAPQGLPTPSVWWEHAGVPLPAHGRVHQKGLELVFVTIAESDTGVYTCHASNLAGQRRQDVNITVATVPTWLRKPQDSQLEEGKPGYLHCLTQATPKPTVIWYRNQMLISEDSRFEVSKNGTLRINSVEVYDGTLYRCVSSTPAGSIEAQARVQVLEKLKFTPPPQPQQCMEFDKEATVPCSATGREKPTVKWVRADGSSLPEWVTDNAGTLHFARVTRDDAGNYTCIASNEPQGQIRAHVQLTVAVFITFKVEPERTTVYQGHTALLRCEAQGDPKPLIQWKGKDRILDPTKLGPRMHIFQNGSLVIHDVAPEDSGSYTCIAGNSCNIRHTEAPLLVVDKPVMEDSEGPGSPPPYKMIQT
The assay can be described thus: ELISA, plate-coated mouse PTK7 protein, anti-human Fc-HRP detection. The method, then:
as §1

Assay [3] has as its target T1, rat PTK-7 recombinant protein. The assay is described as follows: ELISA, plate coated with 2 ug/mL rat PTK-7 recombinant protein, HRP anti-human Fc detection, OD450. As to the method: as §1
Assay [4] deals with T2, mouse PTK-7 recombinant protein. The assay can be described thus: ELISA, plate coated with 2 ug/mL mouse PTK-7 recombinant protein, HRP anti-human Fc detection, OD450. The method, then: as §1

Broadly, the EC50 is the midpoint of the concentration-response curve.

B1: humanized antibody 2C5 (antibody, V domains shown)
VH: QVQLVQSGAEVKKPGASVKVSCKASGYTFTDYYINWVRQAPGQGLEWMGDINPYSGGPVYNQKFMARVTMTVDKSINTAYMELSRLRSDDTAVYYCARGDYYGSNYNYWGQGTLVTVSS
VL: EIVLTQSPATLSVSPGERATLSCRASQNIGTSIHWYQQKPGQAPRLLIKFASESISGIPARFSGSGSGTEFTLTISSLQSEDIAVYYCQQSNNWPYTFGQGTKLEIK
notes: Only variable regions are tied to 2C5; It was detected with anti-human Fc, so it has a human Fc
Regarding B1, the EC50 came out at 1.57 nM in assay [1], 5.24 nM in assay [2], 5.24 nM in assay [3] and 1.57 nM in assay [4].

These data come from patent US20250115680A1 (PROFOUNDBIO US, published 2025).
